Assay results from paper PMC5800818 (2018).
Substitutions are numbered along the chain they refer to.

B1: Numb-PTBo, purified (domain or fragment)
chain: SRPHQWQTDEEGVRTGKCSFPVKYLGHVEVDESRGMHICEDAVKRLKATGKKAVKAVLWVSADGLRVVDEKTKDLIVDQTIEKVSFCAPDRNFDRAFSYICRDGTTRRWICHCFMAVKDTGERLSHAVGCAFAACLERKQKREKE
B2: Numb isoform-1 full-length, purified (natural protein)
chain: MNKLRQSFRRKKDVYVPEASRPHQWQTDEEGVRTGKCSFPVKYLGHVEVDESRGMHICEDAVKRLKAERKFFKGFFGKTGKKAVKAVLWVSADGLRVVDEKTKDLIVDQTIEKVSFCAPDRNFDRAFSYICRDGTTRRWICHCFMAVKDTGERLSHAVGCAFAACLERKQKREKECGVTATFDASRTTFTREGSFRVTTATEQAEREEIMKQMQDAKKAETDKIVVGSSVAPGNTAPSPSSPTSPTSDATTSLEMNNPHAIPRRHAPIEQLARQGSFRGFPALSQKMSPFKRQLSLRINELPSTMQRKTDFPIKNAVPEVEGEAESISSLCSQITNAFSTPEDPFSSAPMTKPVTVVAPQSPTFQANGTDSAFHVLAKPAHTALAPVAMPVRETNPWAHAPDAANKEIAATCSGTEWGQSSGAASPGLFQAGHRRTPSEADRWLEEVSKSVRAQQPQASAAPLQPVLQPPPPTAISQPASPFQGNAFLTSQPVPVGVVPALQPAFVPAQSYPVANGMPYPAPNVPVVGITPSQMVANVFGTAGHPQAAHPHQSPSLVRQQTFPHYEASSATTSPFFKPPAQHLNGSAAFNGVDDGRLASADRHTEVPTGTCPVDPFEAQWAALENKSKQRTNPSPTNPFSSDLQKTFEIEL
B3: thioredoxin-scaffolded Numb^54–91, His fusion (other)
chain: GMHICEDAVKRLKAERKFFKGFFGKTGKKAVKAVLWVS
B4: thioredoxin-scaffolded Numb^63–82, His fusion (other)
chain: KRLKAERKFFKGFFGKTGKK
B5: PTBi F75-76A (protein)
chain: SRPHQWQTDEEGVRTGKCSFPVKYLGHVEVDESRGMHICEDAVKRLKAERKFFKGAAGKTGKKAVKAVLWVSADGLRVVDEKTKDLIVDQTIEKVSFCAPDRNFDRAFSYICRDGTTRRWICHCFMAVKDTGERLSHAVGCAFAACLERKQKREKE
B6: PTBi F71-72-75-76A (protein)
chain: B5 chain with F52A, F53A
B7: PTBi F71-72A (protein)
chain: B5 chain with F52A, F53A, A56F, A57F
B8: PTBi in complex with GPpY (complex)
chain 1: B5 chain with A56F, A57F
chain 2: AYIGPYL
modifications: phosphotyrosine at position 6 (AYIGPpYL)
B9: Numb-PTBi (Numb^20–175), purified (domain or fragment)
chain: B5 chain with A56F, A57F

How the values were obtained:
[1] = target: T1, rhodamine-labeled Mdm2^216–302 (human, UniProt Q00987-11 216-302, rhodamine label (site not stated)); experiment: FP
T1 sequence (Q00987 210-296): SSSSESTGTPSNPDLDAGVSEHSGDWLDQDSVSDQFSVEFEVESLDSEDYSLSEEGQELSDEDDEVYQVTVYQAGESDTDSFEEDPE

[2] = target: T1, rhodamine-labeled Mdm2^216–302; experiment: FP; remark: listed apart in the source
[3] = target: T1, rhodamine-labeled Mdm2^216–302; experiment: FP; remark: listed apart in the source
[4] = target: T1, rhodamine-labeled Mdm2^216–302; experiment: FP; GPpY peptide preassembled with PTBi

Kd [1] [µM] | Kd [2] [µM] | Kd [3] [µM] | also measured | Binder
155 |  |  |  | B1
5.6 |  |  |  | B2
 | 5.1 |  |  | B3
 | 86 |  |  | B4
 |  | 43.5 |  | B5
 |  | 60.6 |  | B6
 |  | 29 |  | B7
 |  |  | Kd [4]: 5.8 µM | B8
5.5 | 6.1 |  |  | B9
